Reference: patent US20210380703A1 (RIGEL PHARMACEUTICALS, published 2021)

Legend:
Mouse ACVR2A = Mouse ACVR2A (mouse, UniProt P27038 20-135, limits assumed); test: ELISA
Method in brief: (§1)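 ELISA measured binding of ACVR2A-specific monoclonal antibodies to human and mouse ACVR2A. Biotinylated goat anti-human kappa light chain served as positive control and human Fc as negative control.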

Human ACVR2A = molecular target: T1, Human ACVR2A (human, UniProt P27037 20-135, limits assumed); test: ELISA
T1 construct: also called activin receptor, type II A
T1 sequence (P27037 20-135 limits assumed): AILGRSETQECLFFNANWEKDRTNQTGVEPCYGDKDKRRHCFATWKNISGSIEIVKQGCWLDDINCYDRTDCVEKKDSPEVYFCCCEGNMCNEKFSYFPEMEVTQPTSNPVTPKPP
Method in brief: as §1

Goat anti-Human Kappa = molecular target: T2, Goat anti-Human Kappa; test: ELISA, positive control
T2 construct: Positive control of the ELISA; also called biotinylated goat anti-human kappa light chain
Method in brief: as §1
Also: test concentration or dose not given here.

Chain of Mouse ACVR2A (P27038 20-135 limits assumed): as the sequence (P27037 20-135 limits assumed) above, with K20R, V73I counted along it

| Binder | optical density (Mouse ACVR2A) [OD] | optical density (Human ACVR2A) [OD] | optical density (Goat anti-Human Kappa) [OD] |
| --- | --- | --- | --- |
| 369_G06 (antibody, V domains shown) VH: EVQLLESGGGLVQPGGSLRLSCAASGFTFDSYGMNWVRQAPGKGLEWVAGINYNGGYTSYADSVKGRFTISRDNSKNTLYLQMNSLRAEDTAVYYCARSANWHDTALDYWGQGTLVTVSS VL: DIQMTQSPSSLSASVGDRVTITCRASQSILSYVNWYQQKPGKAPKLVIYAATSRASGVPSRFSGSGSGTDFTLTISSLQPEDFATYYCQQSYENPLTFGGGTKVEIK | 2.91 | 2.98 | 3.38 |
| 370_A01 (antibody, V domains shown) VH: EVQLLESGGGLVQPGGSLRLSCAASGFTFSSYSMNWVRQAPGKGLEWVSGINYNSGYKSYADSVKGRFTISRDNSKNTLYLQMNSLRAEDTAVYYCARSANWHDTALDYWGQGTLVTVSS VL: DIQMTQSPSSLSASVGDRVTITCRASQSISTYLNWYQQKPGKAPKLVIYAATSRASGVPSRFSGSGSGTDFTLTISSLQPEDFATYYCQQSYNLPLTFGGGTKVEIK | 2.96 | 2.86 | 3.62 |
| 370_E03 (antibody, V domains shown) VH: EVQLLESGGGLVQPGGSLRLSCAASGFTFSSYGMNWVRQAPGKGLEWVSSINYNGGYKGYADSVKGRFTISRDNSKNTLYLQMNSLRAEDTAVYYCARSANWHDTALDYWGQGTLVTVSS VL: DIQMTQSPSSLSASVGDRVTITCRASQSILTYLNWYQQKPGKAPKLVIYYASNRASGVPSRFSGSGSGTDFTLTISSLQPEDFATYYCQQSYDSPLTFGGGTKVEIK | 3.74 | 3.64 | 3.57 |
| 370_E06 (antibody, V domains shown) VH: EVQLLESGGGLVQPGGSLRLSCAASGFTFSSYGMNWVRQAPGKGLEWVSGINYNSGYKSYADSVKGRFTISRDNSKNTLYLQMNSLRAEDTAVYYCARSANWHDTALDYWGQGTLVTVSS VL: DIQMTQSPSSLSASVGDRVTITCRASQSILSYLNWYQQKPGKAPKLVIYATTSLASGVPSRFSGSGSGTDFTLTISSLQPEDFATYYCQQSYDTPLTFGGGTKVEIK | 3.02 | 2.9 | 3.61 |
| 370_D11 (antibody, V domains shown) VH: EVQLLESGGGLVQPGGSLRLSCAASGFTFDSYSMNWVRQAPGKGLEWVSGINYNGGYTGYADSVKGRFTISRDNSKNTLYLQMNSLRAEDTAVYYCARSANWHDTALDYWGQGTLVTVSS VL: DIQMTQSPSSLSASVGDRVTITCRASQSIVSYLNWYQQKPGKAPKLLIYAATSRASGVPSRFSGSGSGTDFTLTISSLQPEDFATYYCQQSYDTPLTFGGGTKVEIK | 2.79 | 2.72 | 3.38 |
| 370_C05 (antibody, V domains shown) VH: EVQLLESGGGLVQPGGSLRLSCAASGFTFSSYSMNWVRQAPGKGLEWVAGINYNSGYTGYADSVKGRFTISRDNSKNTLYLQMNSLRAEDTAVYYCARSANWHDTALDYWGQGTLVTVSS VL: DIQMTQSPSSLSASVGDRVTITCRASQSILSYVNWYQQKPGKAPKLVIYAATSRASGVPSRFSGSGSGTDFTLTISSLQPEDFATYYCQQSYNSPLTFGGGTKVEIK | 3.55 | 3.21 | 3.56 |
| 370_C08 (antibody, V domains shown) VH: EVQLLESGGGLVQPGGSLRLSCAASGFTFSSYGMNWVRQAPGKGLEWVAGINYNGGYKGYADSVKGRFTISRDNSKNTLYLQMNSLRAEDTAVYYCARSANWHDTALDYWGQGTLVTVSS VL: DIQMTQSPSSLSASVGDRVTITCRASQSISNYLNWYQQKPGKAPKLLIYAVTSRASGVPSRFSGSGSGTDFTLTISSLQPEDFATYYCQQSYDSPLTFGGGTKVEIK | 2.97 | 2.73 | 3.11 |
| 370_A12 (antibody, V domains shown) VH: EVQLLESGGGLVQPGGSLRLSCAASGFTFSSYGMNWVRQAPGKGLEWVAGINYNGGYTSYADSVKGRFTISRDNSKNTLYLQMNSLRAEDTAVYYCARSANWHDTALDYWGQGTLVTVSS VL: DIQMTQSPSSLSASVGDRVTITCRASQSILTYLNWYQQKPGKAPKLLIYAATSLASGVPSRFSGSGSGTDFTLTISSLQPEDFATYYCQQSYDSPLTFGGGTKVEIK | 3.19 | 3.06 | 3.72 |
| 370_E09 (antibody, V domains shown) VH: EVQLLESGGGLVQPGGSLRLSCAASGFTFDDSSMHWVRQAPGKGLEWVSNINYNGGYTGYADSVKGRFTISRDNSKNTLYLQMNSLRAEDTAVYYCAKSANWHDTALDYWGQGTLVTVSS VL: DIQMTQSPSSLSASVGDRVTITCRASQSILSYVNWYQQKPGKAPKLVIYAATSRASGVPSRFSGSGSGTDFTLTISSLQPEDFATYYCQQSYELPLTFGGGTKVEIK | 3.56 | 3.45 | 3.6 |
| 370_C03 (antibody, V domains shown) VH: EVQLLESGGGLVQPGGSLRLSCAASGFTFSSYGMNWVRQAPGKGLEWVAGINYNGGYKGYADSVKGRFTISRDNSKNTLYLQMNSLRAEDTAVYYCARSANWHDTALDYWGQGTLVTVSS VL: DIQMTQSPSSLSASVGDRVTITCRASQSILTYLNWYQQKPGKAPKLLIYYVTNRQSGVPSRFSGSGSGTDFTLTISSLQPEDFATYYCQQSYSSPLTFGGGTKVEIK | 3.77 | 3.59 | 3.57 |
| 369_H05 (antibody, V domains shown) VH: EVQLLESGGGLVQPGGSLRLSCAASGFTFSSYGMNWVRQAPGKGLEWVANINYNGGYTGYADSVKGRFTISRDNSKNTLYLQMNSLRAEDTAVYYCARSANWHDTALDYWGQGTLVTVSS VL: DIQMTQSPSSLSASVGDRVTITCRASQSIVSYVNWYQQKPGKAPKLLIYAATSRASGVPSRFSGSGSGTDFTLTISSLQPEDFATYYCQQSYSNPLTFGGGTKVEIK | 3.34 | 3.25 | 3.54 |
| 369_G12 (antibody, V domains shown) VH: EVQLLESGGGLVQPGGSLRLSCAASGFTFSSYSMNWVRQAPGKGLEWVANINYNGGYTGYADSVKGRFTISRDNSKNTLYLQMNSLRAEDTAVYYCARSANWHDTALDYWGQGTLVTVSS VL: DIQMTQSPSSLSASVGDRVTITCRASQSILTYVNWYQQKPGKAPKLVIYAATSRHSGVPSRFSGSGSGTDFTLTISSLQPEDFATYYCQQSDNTPLTFGGGTKVEIK | 1.88 | 1.77 | 2.65 |
| 370_C09 (antibody, V domains shown) VH: EVQLLESGGGLVQPGGSLRLSCAASGFTFDSYGMNWVRQAPGKGLEWVSGINYNGGYTSYADSVKGRFTISRDNSKNTLYLQMNSLRAEDTAVYYCARSANWHDTALDYWGQGTLVTVSS VL: DIQMTQSPSSLSASVGDRVTITCRASQSIISYLNWYQQKPGKAPKLVIYAATSLASGVPSRFSGSGSGTDFTLTISSLQPEDFATYYCQQSYSTPLTFGGGTKVEIK | 2.25 | 1.97 | 3.48 |
| 370_D04 (antibody, V domains shown) VH: EVQLLESGGGLVQPGGSLRLSCAASGFTFDSYSMNWVRQAPGKGLEWVANINYNSGYKGYADSVKGRFTISRDNSKNTLYLQMNSLRAEDTAVYYCARSANWHDTALDYWGQGTLVTVSS VL: DIQMTQSPSSLSASVGDRVTITCRASQSILTYLNWYQQKPGKAPKLVIYAATSRASGVPSRFSGSGSGTDFTLTISSLQPEDFATYYCQQSYDNPLTFGGGTKVEIK | 3.74 | 3.59 | 3.6 |
| 370_C01 (antibody, V domains shown) VH: EVQLLESGGGLVQPGGSLRLSCAASGFTFDSYSMNWVRQAPGKGLEWVSGINYNSGYTGYADSVKGRFTISRDNSKNTLYLQMNSLRAEDTAVYYCARSANWHDTALDYWGQGTLVTVSS VL: DIQMTQSPSSLSASVGDRVTITCRASQSILTYLNWYQQKPGKAPKLVIYAATSLASGVPSRFSGSGSGTDFTLTISSLQPEDFATYYCQQSYDTPLTFGGGTKVEIK | 3.38 | 3.29 | 3.62 |
| 369_G11 (antibody, V domains shown) VH: EVQLLESGGGLVQPGGSLRLSCAASGFTFSSYSMNWVRQAPGKGLEWVANINYNSGYKGYADSVKGRFTISRDNSKNTLYLQMNSLRAEDTAVYYCARSANWHDTALDYWGQGTLVTVSS VL: DIQMTQSPSSLSASVGDRVTITCRASQSILTYLNWYQQKPGKAPKLLIYAATSLASGVPSRFSGSGSGTDFTLTISSLQPEDFATYYCQQSYESPLTFGGGTKVEIK | 3.06 | 3.03 | 2.59 |
| 369_H06 (antibody, V domains shown) VH: EVQLLESGGGLVQPGGSLRLSCAASGFTFSSYGMNWVRQAPGKGLEWVANINYNGGYKSYADSVKGRFTISRDNSKNTLYLQMNSLRAEDTAVYYCARSANWHDTALDYWGQGTLVTVSS VL: DIQMTQSPSSLSASVGDRVTITCRASQSIVSYVNWYQQKPGKAPKLLIYAATSRASGVPSRFSGSGSGTDFTLTISSLQPEDFATYYCQQSYDTPLTFGGGTKVEIK | 3.56 | 3.23 | 3.5 |
| 370_A04 (antibody, V domains shown) VH: EVQLLESGGGLVQPGGSLRLSCAASGFTFDSYSMNWVRQAPGKGLEWVSGINYNGGYTSYADSVKGRFTISRDNSKNTLYLQMNSLRAEDTAVYYCARSANWHDTALDYWGQGTLVTVSS VL: DIQMTQSPSSLSASVGDRVTITCRASQSIITYLNWYQQKPGKAPKLLIYAATSRASGVPSRFSGSGSGTDFTLTISSLQPEDFATYYCQQSYDNPLTFGGGTKVEIK | 2.74 | 2.57 | 3.48 |
| 369_H09 (antibody, V domains shown) VH: EVQLLESGGGLVQPGGSLRLSCAASGFTFDDYSMNWVRQAPGKGLEWVSGINYNGGYTSYADSVKGRFTISRDNSKNTLYLQMNSLRAEDTAVYYCARSANWHDTALDYWGQGTLVTVSS VL: DIQMTQSPSSLSASVGDRVTITCRASQSILSYVNWYQQKPGKAPKLLIYAVTSLASGVPSRFSGSGSGTDFTLTISSLQPEDFATYYCQQSYESPLTFGGGTKVEIK | 2.64 | 2.36 | 3.51 |
